Experimental data published in patent US20070031415A1 (published 2007).
Positions count from the first letter of the chain named.

T1: Rap1V12 (Rap1-activated mutant) (human, UniProt P62834 1-184, limits assumed)
T1 construct: also called active Rap1V12
T1 chain: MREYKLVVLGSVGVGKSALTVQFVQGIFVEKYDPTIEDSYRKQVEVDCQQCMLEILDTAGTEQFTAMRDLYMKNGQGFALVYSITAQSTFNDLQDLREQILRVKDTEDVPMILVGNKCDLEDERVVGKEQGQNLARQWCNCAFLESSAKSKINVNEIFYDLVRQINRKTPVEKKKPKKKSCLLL

T2: GTP-Rap1 (human, UniProt P62833 1-184 (bovine entry), limits assumed)
T2 sequence: T1 chain with V12G

B1: Rap1V12 E37G (enzyme)
chain: T1 chain with E37G
notes: Point mutation in the effector region of the active Rap1V12
B2: Rap1V12 T35E (enzyme)
chain: T1 chain with T35E
notes: as for B1
B3: Rap1V12 Y40C (enzyme)
chain: T1 chain with Y40C
notes: as for B1
B4: Rap1V12 D38E (enzyme)
chain: T1 chain with D38E
notes: as for B1
B5: human p30 (RAPL), wild type (other)
chain: MTVDSSMSSGYCSLDEELEDCFFTAKTTFFRNAQSKHLSKNVCKPVEETQRPPTLQEIKQKIDSYNTREKNCLGMKLSEDGTYTGFIKVHLKLRRPVTVPAGIRPQSIYDAIKEVNLAATTDKRTSFYLPLDAIKQLHISSTTTVSEVIQGLLKKFMVVDNPQKFALFKRIHKDGQVLFQKLSIADRPLYLRLLAGPDTEVLSFVLKENETGEVEWDAFSIPELQNFLTILEKEEQDKIQQVQKKYDKFRQKLEEALRESQGKPG
notes: also called hp30; wild type p30
B6: p30RBDm (RBD-domain mutant of p30) (other)
chain: B5 chain with K123A, R124A, K135A, K154A, K155A, D160A, N161A

Tests used:
[1] = biological target: B5; experiment: association of Rap1V12 point mutants with p30, assay not detailed
[2] = biological target: T1, Rap1V12 (Rap1-activated mutant); experiment: yeast two-hybrid screen, Rap1V12 as bait
Excerpt: To identify a molecule that associates with Rap1, the human leukocyte cDNA library was screened by a yeast two-hybrid method using a Rap1-activated mutant Rap1V12 as bait. As a result, a molecule that encodes a protein of a molecular weight of 30,000 having a Ras/Rap binding domain (RBD) was isolated and termed as p30 (FIG. 1). […] It was found from an analysis of the human genome database that p30 is an alternative splicing product of Norel. Mouse p30 cDNA was also isolated by a RT-PCR method.

[3] = biological target: Rap1 (of the BAF cells, in chemokine-stimulated migration); experiment: cell-based or functional assay
GTP-Rap1 = biological target: T2, GTP-Rap1; experiment: binding to GTP-Rap1, assay not detailed

Binder | binding result [1] | other results
B1 | binds | 
B2 | no binding | 
B3 | no binding | 
B4 | no binding | 
B5 |  | binding result [2]: binds; cell migration on ICAM-1 in the presence of SDF-1 (CXCL12) (20 nM) [3]: ~2 fold
B6 |  | binding result (GTP-Rap1): no binding
